The target in one series is T1, PKB-sub peptide.
T1 chain: CKRPRAASFAE

The next series has as its target T2, GST-SGK2 fusion protein.
T2 chain: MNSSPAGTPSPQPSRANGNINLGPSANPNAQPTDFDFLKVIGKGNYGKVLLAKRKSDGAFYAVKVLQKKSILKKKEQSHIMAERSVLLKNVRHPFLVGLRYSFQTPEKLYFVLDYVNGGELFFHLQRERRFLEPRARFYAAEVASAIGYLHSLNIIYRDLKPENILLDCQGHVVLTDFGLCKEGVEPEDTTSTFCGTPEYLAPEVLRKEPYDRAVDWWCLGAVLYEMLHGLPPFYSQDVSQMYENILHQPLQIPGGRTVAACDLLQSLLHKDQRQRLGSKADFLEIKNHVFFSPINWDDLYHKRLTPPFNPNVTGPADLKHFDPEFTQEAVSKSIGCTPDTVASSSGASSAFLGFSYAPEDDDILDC

In series [1] the target is T3, Calmodulin Dependent Protein Kinase Substrate.
T3 chain: PLSRTLSVSS

The target of another series is T4, Syntide 2.
T4 chain: PLARTLSVAGLPGKK

The target in the next series is T5, CREBtide.
T5 chain: KRREILSRRPSYR

Chain of PDK1 peptide (chain, as listed by the source): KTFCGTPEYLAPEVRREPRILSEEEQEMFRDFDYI

B1: GST-SGK2 fusion protein (protein)
chain: MNSSPAGTPSPQPSRANGNINLGPSANPNAQPTDFDFLKVIGKGNYGKVLLAKRKSDGAFYAVKVLQKKSILKKKEQSHIMAERSVLLKNVRHPFLVGLRYSFQTPEKLYFVLDYVNGGELFFHLQRERRFLEPRARFYAAEVASAIGYLHSLNIIYRDLKPENILLDCQGHVVLTDFGLCKEGVEPEDTTSTFCGTPEYLAPEVLRKEPYDRAVDWWCLGAVLYEMLHGLPPFYSQDVSQMYENILHQPLQIPGGRTVAACDLLQSLLHKDQRQRLGSKADFLEIKNHVFFSPINWDDLYHKRLTPPFNPNVTGPADLKHFDPEFTQEAVSKSIGCTPDTVASSSGASSAFLGFSYAPEDDDILDC
On to B1, for which the entries for the “in vitro kinase assay (32P incorporation) with purified SGK2” value with PKB-sub peptide and with PDK1 peptide were “PKB-sub had significant incorporation of ^32P” and “addition of same amount of control peptide (PDK1 peptide) had no significant incorporation”, respectively.

B2: GST-DM-PK fusion protein (protein)
chain: MSAEVRLRRLQQLVLDPGFLGLEPLLDLLLGVHQELGASELAQDKYVADFLQWAEPIVVRLKEVRLQRDDFEILKVIGRGAFSEVAVVKMKQTGQVYAMKIMNKWDMLKRGEVSCFREERDVLVNGDRRWITQLHFAFQDENYLYLVMEYYVGGDLLTLLSKFGERIPAEMARFYLAEIVMAIDSVHRLGYVHRDIKPDNILLDRCGHIRLADFGSCLKLRADGTVRSLVAVGTPDYLSPEILQAVGGGPGTGSYGPECDWWALGVFAYEMFYGQTPFYADSTAETYGKIVHYKEHLSLPLVDEGVPEEARDFIQRLLCPPETRLGRGGAGDFRTHPFFFGLDWDGLRDSVPPFTPDFEGATDTCNFDLVEDGLTAMVSGGGETLSDIREGAPLGVHLPFVGYSYSCMALRDSEVPGPTPMEVEAEQLLEPHVQAPSLEPSVSPQDETAEVAVPAAVPAAEAEAEVTLRELQEALEEEVLTRQSLSREMEAIRTDNQNFASQLREAEARNRDLEAHVRQLQERMELLQAEGATAVTGVPSPRATDPPSHLDGPPAVAVGQCPLVGPGPMHRRHLLLPARVPRPGLSEALSLLLFAVVLSRAAALGCIGLVAHAGQLTAVWRRPGAARAP
Take B2: the “in vitro kinase assay with DM-PK purified from E. coli” value is “MBP and Histone H1 were both phosphorylated by purified DM-PK in these assays” in the series with MBP; “MBP and Histone H1 were both phosphorylated by purified DM-PK in these assays” in the series with Histone H1.

B3: His-tag PDK1 (protein)
chain: MARTTSQLYDAVPIQSSVVLCSCPSPSMVRTQTESSTPPGIPGGSRQGPAMDGTAAEPRPGAGSLQHAQPPPQPRKKRPEDFKFGKILGEGSFSTVVLARELATSREYAIKILEKRHIIKENKVPYVTRERDVMSRLDHPFFVKLYFTFQDDEKLYFGLSYAKNGELLKYIRKIGSFDETCTRFYTAEIVSALEYLHGKGIIHRDLKPENILLNEDMHIQITDFGTAKVLSPESKQARANSFVGTAQYVSPELLTEKSACKSSDLWALGCIIYQLVAGLPPFRAGNEYLIFQKIIKLEYDFPEKFFPKARDLVEKLLVLDATKRLGCEEMEGYGPLKAHPFFESVTWENLHQQTPPKLTAYLPAMSEDDEDCYGNYDNLLSQFGCMQVSSSSSSHSLSASDTGLPQRSGSNIEQYIHDLDSNSFELDLQFSEDEKRLLLEKQAGGNPWHQFVENNLILKMGPVDKRKGLFARRRQLLLTEGPHLYYVDPVNKVLKGEIPWSQELRPEAKNFKTFFVHTPNRTYYLMDPSGNAHKWCRKIQEVWRQRYQSHPDAAVQ
B3: in the series with GST-SGK2 fusion protein, the “32P phosphorylation of SGK2 after incubation with PDK1, SDS-PAGE” value was “SGK2 activated by PKD1 was significantly phosphorylated, while non-activated SGK2 was not” and the “in vitro kinase activity of SGK2 after activation by PDK1” value is listed as “the PDK1 activated SGK2 had significantly higher kinase activity compared to non-activated SGK2”.

B4: X-press-CaMK-X1 fusion protein (protein)
chain: MGRKEEDDCSSWKKQTTNIRKTFIFMEVLGSGAFSEVFLVKQRLTGKLFALKCIKKSPAFRDSSLENEIAVLKKIKHENIVTLEDIYESTTHYYLVMQLVSGGELFDRILERGVYTEKDASLVIQQVLSAVKYLHENGIVHRDLKPENLLYLTPEENSKIMITDFGLSKMEQNGIMSTACGTPGYVAPEVLAQKPYSKAVDCWSIGVITYILLCGYPPFYEETESKLFEKIKEGYYEFESPFWDDISESAKDFICHLLEKDPNERYTCEKALSHPWIDGNTALHRDIYPSVSLQIQKNFAKSKWRQAFNAAAVVHHMRKLHMNLHSPGVRPEVENRPPETQASETSRPSSPEITITEAPVLDHSVALPALTQLPCQHGRRPTAPGGRSLNCLVNGSLHISSSLVPMHQGSLAAGPCGCCSSCLNIGSKGKSSYCSEPTLLKKANKKQNFKSEVMVPVKASGSSHCRAGQTGVCLIM
In the case of B4, the “in vitro kinase assay (32P incorporation) with immunoprecipitated CaMK-X1” value was “CaMK-X1 could not phosphorylate control peptide” in series [1]; “CaMK-X1 phosphorylated CREBtide and Syntide 2 in vitro” with Syntide 2; “CaMK-X1 phosphorylated CREBtide and Syntide 2 in vitro” with CREBtide.

B5: Histidine tagged CaMK-X1 expressed in Sf9 cells (protein)
chain: MGRKEEDDCSSWKKQTTNIRKTFIFMEVLGSGAFSEVFLVKQRLTGKLFALKCIKKSPAFRDSSLENEIAVLKKIKHENIVTLEDIYESTTHYYLVMQLVSGGELFDRILERGVYTEKDASLVIQQVLSAVKYLHENGIVHRDLKPENLLYLTPEENSKIMITDFGLSKMEQNGIMSTACGTPGYVAPEVLAQKPYSKAVDCWSIGVITYILLCGYPPFYEETESKLFEKIKEGYYEFESPFWDDISESAKDFICHLLEKDPNERYTCEKALSHPWIDGNTALHRDIYPSVSLQIQKNFAKSKWRQAFNAAAVVHHMRKLHMNLHSPGVRPEVENRPPETQASETSRPSSPEITITEAPVLDHSVALPALTQLPCQHGRRPTAPGGRSLNCLVNGSLHISSSLVPMHQGSLAAGPCGCCSSCLNIGSKGKSSYCSEPTLLKKANKKQNFKSEVMVPVKASGSSHCRAGQTGVCLIM
B5: the “in vitro kinase assay (32P incorporation) with Ni2+ column purified CaMK-X1” value in series [1] was “Syntide 2and CREBtide had higher incorporation of ^32p than the control peptide”; with Syntide 2 it was “CREBtide and Syntide 2 are phosphorylated by the purified CaMK-X1”; with CREBtide, “CREBtide and Syntide 2 are phosphorylated by the purified CaMK-X1”.

(Values after patent US20040072184.)
